Results from US20170015742A1 (published 2017).

Experiments:
PDGF-BB = target: T1, PDGF-BB (human, UniProt P01127 82-190, limits assumed); experiment: Biacore SPR; DVD-Ig captured on anti-human Fc, antigen injected
T1 construct: also called human PDGF-BB; hPDGF-BB
Method: (§1) For example, approximately 9000 RU of goat anti-human Fc specific polyclonal antibody (Thermo Fisher Scientific Inc., Rockford, Ill.) diluted in 10 mM sodium acetate (pH 4.5) is directly immobilized across a CM5 research grade biosensor chip using a standard amine coupling kit according to manufacturer's instructions and procedures at 25 μg/ml. Unreacted moieties on the biosensor surface were blocked with ethanolamine. For kinetic analysis, rate equations derived from the 1:1 Langmuir binding model were fitted simultaneously to multiple antigen injections (using global fit analysis) with the use of Scrubber 2 (BioLogic Software), Biacore Biaevaluation 4.0.1 software or Biacore T100 Evaluation software. Purified antibodies or DVD-Ig molecules were diluted in running buffer for capture across goat anti-human Fc reaction surfaces. Antibodies or DVD-Ig molecules to be captured as a ligand (1 μg/ml) were injected over reaction matrices at a flow rate of 10 μl/minute. During the assay, all measurements were referenced against the capture surface alone (i.e., with no captured antibody or DVD-Ig molecule). […] The equilibrium dissociation constant KD (M) of the reaction between antibodies and the target antigen was then calculated from the kinetic rate constants by the following formula: KD=Koff/Kₒₙ. Binding was recorded as a function of time and kinetic rate constants were calculated.

VEGF-A = target: T2, VEGF-A (human, UniProt P15692 207-395); experiment: as above
T2 construct: also called hVEGF165
T2 sequence (P15692 other isoform, or with tags, fused parts or gaps limits assumed): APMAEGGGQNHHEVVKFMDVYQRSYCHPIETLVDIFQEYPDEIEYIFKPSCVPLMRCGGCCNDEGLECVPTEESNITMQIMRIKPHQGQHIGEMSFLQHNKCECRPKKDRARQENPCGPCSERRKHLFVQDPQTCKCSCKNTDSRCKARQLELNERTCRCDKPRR
Method: as §1

T1 sequence (P01127 82-190 limits assumed): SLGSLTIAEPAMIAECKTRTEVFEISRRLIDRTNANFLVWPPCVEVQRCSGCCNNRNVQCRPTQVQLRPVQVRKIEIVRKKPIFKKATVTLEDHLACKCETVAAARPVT

Binder	Kd (PDGF-BB) [nM]	kon (PDGF-BB) [M⁻¹ s⁻¹]	Kd (VEGF-A) [nM]	kon (VEGF-A) [M⁻¹ s⁻¹]
4G8.3-SL-9E8.4E (PR-1575834) (bispecific antibody, human IgG1, kappa, L234A L235A, DVD-Ig: outer hBDB-4G8.3 (VEGF), inner hBDI-9E8.4E (PDGF), linkers HG-short/LK-long; Human IgG1 L234A, L235A, H435A with kappa) heavy: EVQLVQSGSELKKPGASVKVSCKASGYTFTNYGMYWVRQAPGQGLEWMGWINTETGKPTYADDFKGRFVFSLDTSVSTAYLQISSLKAEDTAVYYCARTNYYYRSYIFYFDYWGQGTMVTVSSASTKGPEVTLRESGPALVKPTQTLTLTCTFSGFSLSTYGMGVGWIRQPPGKALEWLANIWWDDDKYYNPSLKNRLTISKDTSKNQVVLTMTNMDPVDTATYYCARIESIGTTYSFDYWGQGTMVTVSSASTKGPSVFPLAPSSKSTSGGTAALGCLVKDYFPEPVTVSWNSGALTSGVHTFPAVLQSSGLYSLSSVVTVPSSSLGTQTYICNVNHKPSNTKVDKKVEPKSCDKTHTCPPCPAPEAAGGPSVFLFPPKPKDTLMISRTPEVTCVVVDVSHEDPEVKFNWYVDGVEVHNAKTKPREEQYNSTYRVVSVLTVLHQDWLNGKEYKCKVSNKALPAPIEKTISKAKGQPREPQVYTLPPSREEMTKNQVSLTCLVKGFYPSDIAVEWESNGQPENNYKTTPPVLDSDGSFFLYSKLTVDKSRWQQGNVFSCSVMHEALHNAYTQKSLSLSPGK light: DTVLTQSPATLSLSPGERATLSCRASESVSTHMHWYQQKPGQAPRLLIYGASNLESGVPARFSGSGSGTDFTLTISSLEPEDFAVYFCQQSWNDPFTFGQGTKLEIKRTVAAPSVFIFPPEFVLTQSPGTLSLSPGERATLSCERSSGDIGESYVSWYQQKPGQAPRLVIYADDQRPSGIPDRFSGSGSGTDFTLTISRLEPEDFAVYYCQSYDINIDIVFGGGTKVEIKRTVAAPSVFIFPPSDEQLKSGTASVVCLLNNFYPREAKVQWKVDNALQSGNSQESVTEQDSKDSTYSLSSTLTLSKADYEKHKVYACEVTHQGLSSPVTKSFNRGEC	0.015	1.7e+07	0.01	6.2e+06
4G8.3-GS-9E8.4E (PR-1575832) (bispecific antibody, human IgG1, kappa, L234A L235A, DVD-Ig: outer hBDB-4G8.3 (VEGF), inner hBDI-9E8.4E (PDGF), linkers GS-H10/GS-L10; Human IgG1 L234A, L235A, H435A with kappa) heavy: EVQLVQSGSELKKPGASVKVSCKASGYTFTNYGMYWVRQAPGQGLEWMGWINTETGKPTYADDFKGRFVFSLDTSVSTAYLQISSLKAEDTAVYYCARTNYYYRSYIFYFDYWGQGTMVTVSSGGGGSGGGGSEVTLRESGPALVKPTQTLTLTCTFSGFSLSTYGMGVGWIRQPPGKALEWLANIWWDDDKYYNPSLKNRLTISKDTSKNQVVLTMTNMDPVDTATYYCARIESIGTTYSFDYWGQGTMVTVSSASTKGPSVFPLAPSSKSTSGGTAALGCLVKDYFPEPVTVSWNSGALTSGVHTFPAVLQSSGLYSLSSVVTVPSSSLGTQTYICNVNHKPSNTKVDKKVEPKSCDKTHTCPPCPAPEAAGGPSVFLFPPKPKDTLMISRTPEVTCVVVDVSHEDPEVKFNWYVDGVEVHNAKTKPREEQYNSTYRVVSVLTVLHQDWLNGKEYKCKVSNKALPAPIEKTISKAKGQPREPQVYTLPPSREEMTKNQVSLTCLVKGFYPSDIAVEWESNGQPENNYKTTPPVLDSDGSFFLYSKLTVDKSRWQQGNVFSCSVMHEALHNAYTQKSLSLSPGK light: DTVLTQSPATLSLSPGERATLSCRASESVSTHMHWYQQKPGQAPRLLIYGASNLESGVPARFSGSGSGTDFTLTISSLEPEDFAVYFCQQSWNDPFTFGQGTKLEIKRGGSGGGGSGEFVLTQSPGTLSLSPGERATLSCERSSGDIGESYVSWYQQKPGQAPRLVIYADDQRPSGIPDRFSGSGSGTDFTLTISRLEPEDFAVYYCQSYDINIDIVFGGGTKVEIKRTVAAPSVFIFPPSDEQLKSGTASVVCLLNNFYPREAKVQWKVDNALQSGNSQESVTEQDSKDSTYSLSSTLTLSKADYEKHKVYACEVTHQGLSSPVTKSFNRGEC	0.02	1.3e+07	0.013	6.1e+06
9A8.12-GS-9E8.4E (PR-1577165) (bispecific antibody, human IgG1, kappa, L234A L235A, DVD-Ig: outer hBEW-9A8.12 (VEGF), inner hBDI-9E8.4E (PDGF), linkers GS-H10/GS-L10; Human IgG1 L234A, L235A, H435A with kappa) heavy: EVQLVQSGAEVKKPGASVKVSCKASGYTFTNYGMYWVRQAPGQGLEWMGWINTETGKPIYADDFKGRVTMTTDTSTSTAYMELRSLRSDDTAVYYCARVDYDGSFWFAYWGQGTLVTVSSGGGGSGGGGSEVTLRESGPALVKPTQTLTLTCTFSGFSLSTYGMGVGWIRQPPGKALEWLANIWWDDDKYYNPSLKNRLTISKDTSKNQVVLTMTNMDPVDTATYYCARIESIGTTYSFDYWGQGTMVTVSSASTKGPSVFPLAPSSKSTSGGTAALGCLVKDYFPEPVTVSWNSGALTSGVHTFPAVLQSSGLYSLSSVVTVPSSSLGTQTYICNVNHKPSNTKVDKKVEPKSCDKTHTCPPCPAPEAAGGPSVFLFPPKPKDTLMISRTPEVTCVVVDVSHEDPEVKFNWYVDGVEVHNAKTKPREEQYNSTYRVVSVLTVLHQDWLNGKEYKCKVSNKALPAPIEKTISKAKGQPREPQVYTLPPSREEMTKNQVSLTCLVKGFYPSDIAVEWESNGQPENNYKTTPPVLDSDGSFFLYSKLTVDKSRWQQGNVFSCSVMHEALHNAYTQKSLSLSPGK light: DTQLTQSPSSLSASVGDRVTITCRASESVSTVIHWYQQKPGKQPKLLIHGASNLESGVPSRFSGSGSGTDFTLTISSLQPEDFATYFCQQHWNDPPTFGQGTKLEIKRGGSGGGGSGEFVLTQSPGTLSLSPGERATLSCERSSGDIGESYVSWYQQKPGQAPRLVIYADDQRPSGIPDRFSGSGSGTDFTLTISRLEPEDFAVYYCQSYDINIDIVFGGGTKVEIKRTVAAPSVFIFPPSDEQLKSGTASVVCLLNNFYPREAKVQWKVDNALQSGNSQESVTEQDSKDSTYSLSSTLTLSKADYEKHKVYACEVTHQGLSSPVTKSFNRGEC	0.0081	3.3e+07	0.18	770000
4G8.3-LS-9E8.4 (g) (PR-1572106) (bispecific antibody, human IgG1, kappa, L234A L235A, DVD-Ig: outer hBDB-4G8.3 (VEGF), inner hBDI-9E8.4 (PDGF), linkers HG-long/LK-short; Human IgG1 L234A, L235A, H435A with kappa) heavy: EVQLVQSGSELKKPGASVKVSCKASGYTFTNYGMYWVRQAPGQGLEWMGWINTETGKPTYADDFKGRFVFSLDTSVSTAYLQISSLKAEDTAVYYCARTNYYYRSYIFYFDYWGQGTMVTVSSASTKGPSVFPLAPEVTLRESGPALVKPTQTLTLTCTFSGFSLSTYGMGVGWIRQPPGKALEWLANIWWDDDKYYNPSLKNRLTISKDTSKNQVVLTMTNMDPVDTATYYCARIESIGTTYSFDYWGQGTMVTVSSASTKGPSVFPLAPSSKSTSGGTAALGCLVKDYFPEPVTVSWNSGALTSGVHTFPAVLQSSGLYSLSSVVTVPSSSLGTQTYICNVNHKPSNTKVDKKVEPKSCDKTHTCPPCPAPEAAGGPSVFLFPPKPKDTLMISRTPEVTCVVVDVSHEDPEVKFNWYVDGVEVHNAKTKPREEQYNSTYRVVSVLTVLHQDWLNGKEYKCKVSNKALPAPIEKTISKAKGQPREPQVYTLPPSREEMTKNQVSLTCLVKGFYPSDIAVEWESNGQPENNYKTTPPVLDSDGSFFLYSKLTVDKSRWQQGNVFSCSVMHEALHNAYTQKSLSLSPGK light: DTVLTQSPATLSLSPGERATLSCRASESVSTHMHWYQQKPGQAPRLLIYGASNLESGVPARFSGSGSGTDFTLTISSLEPEDFAVYFCQQSWNDPFTFGQGTKLEIKRTVAAPEFVLTQSPGTLSLSPGERATLSCERSSGDIGDSYVSWYQQKPGQAPRLVIYADDQRPSGIPDRFSGSGSGTDFTLTISRLEPEDFAVYYCQSYDINIDIVFGGGTKVEIKRTVAAPSVFIFPPSDEQLKSGTASVVCLLNNFYPREAKVQWKVDNALQSGNSQESVTEQDSKDSTYSLSSTLTLSKADYEKHKVYACEVTHQGLSSPVTKSFNRGEC	0.011	1.8e+07	0.0081	6.3e+06
4G8.3-LS-9E8.4E (PR-1575835) (bispecific antibody, human IgG1, kappa, L234A L235A, DVD-Ig: outer hBDB-4G8.3 (VEGF), inner hBDI-9E8.4E (PDGF), linkers HG-long/LK-short; Human IgG1 L234A, L235A, H435A with kappa) heavy: EVQLVQSGSELKKPGASVKVSCKASGYTFTNYGMYWVRQAPGQGLEWMGWINTETGKPTYADDFKGRFVFSLDTSVSTAYLQISSLKAEDTAVYYCARTNYYYRSYIFYFDYWGQGTMVTVSSASTKGPSVFPLAPEVTLRESGPALVKPTQTLTLTCTFSGFSLSTYGMGVGWIRQPPGKALEWLANIWWDDDKYYNPSLKNRLTISKDTSKNQVVLTMTNMDPVDTATYYCARIESIGTTYSFDYWGQGTMVTVSSASTKGPSVFPLAPSSKSTSGGTAALGCLVKDYFPEPVTVSWNSGALTSGVHTFPAVLQSSGLYSLSSVVTVPSSSLGTQTYICNVNHKPSNTKVDKKVEPKSCDKTHTCPPCPAPEAAGGPSVFLFPPKPKDTLMISRTPEVTCVVVDVSHEDPEVKFNWYVDGVEVHNAKTKPREEQYNSTYRVVSVLTVLHQDWLNGKEYKCKVSNKALPAPIEKTISKAKGQPREPQVYTLPPSREEMTKNQVSLTCLVKGFYPSDIAVEWESNGQPENNYKTTPPVLDSDGSFFLYSKLTVDKSRWQQGNVFSCSVMHEALHNAYTQKSLSLSPGK light: DTVLTQSPATLSLSPGERATLSCRASESVSTHMHWYQQKPGQAPRLLIYGASNLESGVPARFSGSGSGTDFTLTISSLEPEDFAVYFCQQSWNDPFTFGQGTKLEIKRTVAAPEFVLTQSPGTLSLSPGERATLSCERSSGDIGESYVSWYQQKPGQAPRLVIYADDQRPSGIPDRFSGSGSGTDFTLTISRLEPEDFAVYYCQSYDINIDIVFGGGTKVEIKRTVAAPSVFIFPPSDEQLKSGTASVVCLLNNFYPREAKVQWKVDNALQSGNSQESVTEQDSKDSTYSLSSTLTLSKADYEKHKVYACEVTHQGLSSPVTKSFNRGEC	0.014	2e+07	0.01	5.8e+06
